For assay [1], the target named is sIL-11Rα ECD (Homo sapiens) (UniProt Q14626). The assay can be described thus: SPR. The following applies: cited from earlier work.
For assay [2], the target named is recombinant extracellular domain of human interleukin-11 receptor subunit α (M1-V363) with a fused polyhistidine tag at the C-terminus (human) (UniProt Q14626).
A further assay concerns the target IL-11Rα (Mus musculus) (UniProt Q64385). Description: cell binding. The following applies: cited from earlier work.
Assay [3] addresses macaque recombinant interleukin-11 (rIL-11), Macaca fascicularis, mature protein lacking Pro1 (Macaca fascicularis) (UniProt P20808). The assay can be described thus: SPR; biotinylated rIL-11 immobilised on NeutrAvidin NLC sensor chip (up to 2000 RU); 5-80 nM sIL-11Rα as analyte; 25 °C; PBS, 0.05% TWEEN 20, pH 7.4; heterogeneous ligand model (two ligand populations). (Surface plasmon resonance follows binding to a sensor surface in real time, without labels.)

In assay [4] the target is murine recombinant interleukin-11 (rIL-11), Mus musculus, mature protein lacking Pro1 (Mus musculus) (UniProt P47873). The description is as above.
Another assay addresses T1, sIL-11Rα ECD (Homo sapiens, UniProt Q14626).
T1 chain: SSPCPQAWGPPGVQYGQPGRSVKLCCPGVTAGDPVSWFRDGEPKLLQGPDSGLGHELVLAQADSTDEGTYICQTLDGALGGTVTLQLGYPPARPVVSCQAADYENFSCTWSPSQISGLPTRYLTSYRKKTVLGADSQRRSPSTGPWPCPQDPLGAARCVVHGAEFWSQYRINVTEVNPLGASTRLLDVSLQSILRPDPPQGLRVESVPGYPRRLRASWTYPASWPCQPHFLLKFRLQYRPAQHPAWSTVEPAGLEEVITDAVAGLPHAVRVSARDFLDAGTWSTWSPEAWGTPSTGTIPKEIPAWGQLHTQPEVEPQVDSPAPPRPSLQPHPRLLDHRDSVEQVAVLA
The assay can be described thus: SPR.

“And” between values parts separate entries of the source, which are not always exact repeats. Equal values may be shown once.

Chain of IL-11Rα (Mus musculus) (Q64385 24-372): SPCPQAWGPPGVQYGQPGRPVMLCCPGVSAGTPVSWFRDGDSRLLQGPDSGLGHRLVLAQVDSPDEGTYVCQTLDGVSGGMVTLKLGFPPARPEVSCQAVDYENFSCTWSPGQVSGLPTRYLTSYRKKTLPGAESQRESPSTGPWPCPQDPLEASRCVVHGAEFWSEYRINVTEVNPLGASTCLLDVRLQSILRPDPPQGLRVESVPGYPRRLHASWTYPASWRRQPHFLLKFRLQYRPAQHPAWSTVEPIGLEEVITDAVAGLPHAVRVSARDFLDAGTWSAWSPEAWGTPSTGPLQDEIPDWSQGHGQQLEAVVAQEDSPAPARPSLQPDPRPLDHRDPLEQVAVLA

Regarding IL-11 (from UniProt P20809), the Kd (in general, the constant that tells how readily two partners part at equilibrium) in assay [1] was 21.9 nM and 7 nM.

Regarding “macaque recombinant interleukin-11 (rIL-11), Macaca fascicularis, mature protein lacking Pro1 (from UniProt P20808 23-199) (ligand)”, in assay [2], the EC50 of STAT3 activation (SEAP secretion, QUANTI-Blue assay) in HEK-Blue IL-6 cells stably transfected with human IL-11Rα gene came to 0.006 nM.

IL-11 (from UniProt P47873): the Kd with IL-11Rα (Mus musculus) is 10 nM.

As for “murine recombinant interleukin-11 (rIL-11), Mus musculus, mature protein lacking Pro1 (from UniProt P47873 23-199) (ligand)”, the EC50 of STAT3 activation (SEAP secretion, QUANTI-Blue assay) in HEK-Blue IL-6 cells stably transfected with human IL-11Rα gene in assay [2] was determined as 0.084 nM.

B1: recombinant extracellular domain of human interleukin-11 receptor subunit α (M1-V363) with a fused polyhistidine tag at the C-terminus (receptor)
chain: SSPCPQAWGPPGVQYGQPGRSVKLCCPGVTAGDPVSWFRDGEPKLLQGPDSGLGHELVLAQADSTDEGTYICQTLDGALGGTVTLQLGYPPARPVVSCQAADYENFSCTWSPSQISGLPTRYLTSYRKKTVLGADSQRRSPSTGPWPCPQDPLGAARCVVHGAEFWSQYRINVTEVNPLGASTRLLDVSLQSILRPDPPQGLRVESVPGYPRRLRASWTYPASWPCQPHFLLKFRLQYRPAQHPAWSTVEPAGLEEVITDAVAGLPHAVRVSARDFLDAGTWSTWSPEAWGTPSTGTIPKEIPAWGQLHTQPEVEPQVDSPAPPRPSLQPHPRLLDHRDSV
Consider B1, for which, in assay [3], the Kd1 (KD, ligand population 1) is 4.2 nM; the Kd2 (KD, ligand population 2) is 8.9 nM; the kd1 (koff, ligand population 1) was 0.000815 s⁻¹; the kd2 (koff, ligand population 2) was found to be 0.0038 s⁻¹. Also, in assay [4], the Kd1 (KD, ligand population 1) was 2.2 nM; the Kd2 (KD, ligand population 2) worked out at 14.6 nM; the kd1 (koff, ligand population 1) came to 0.0007 s⁻¹; the kd2 (koff, ligand population 2) came to 0.0061 s⁻¹.

B2: IL-11 (protein)
chain: PGPPPGSPRASPDPRAELDSTVLLTRSLLEDTRQLTIQLKDKFPADGDHNLDSLPTLAMSAGALGALQLPSVLTRLRADLLSYLRHVQWLRRAMGSSLKTLEPELGTLQTRLDRLLRRLQLLMSRLALPQLPPDPPAPPLAPPSSTWGGIRAAHAILGGLHLTLDWAVRGLLLLKTRL
As to B2, the Kd in the assay with sIL-11Rα ECD was 8.9 nM and 4.2 nM.

The values are drawn from PMC6274577 (2016).
